This note sets out measurements from patent US20240052029A1 (BIOHENG THERAPEUTICS, published 2024).

B1: 6V8 anti-ROR1 humanized scFv, as chimeric antigen receptor on CAR-T cells (scFv)
scFv: ETTLTQSPATLSVSPGEKVIIRCITSTDIDEDMNWYQQKPGQPPKLLISEGNTLRPGVPSRFSGSGSGTDFTLTISSLQPEDVATYYCLQSNNMPLTFGAGTKLELKGGGGSGGGGSGGGGSQVQLQESGPGLVKPSQTLSLTCTVTAYSITSDYAWNWIRQFPGNKLEWMGYISYSGFTRYNPSLKSRISITRDTSKNQFFLKLNFVTTEDTATYYCARGEITYYFDYWGQGTTLTVSSESKYGPPCPPCPIYIWAPLAGTCGVLLLSLVITLYCKRGRKKLLYIFKQPFMRPVQTTQEEDGCSCRFPEEEEGGCELRVKFSRSADAPAYQQGQNQLYNELNLGRREEYDVLDKRRGRDPEMGGKPRRKNPQEGLYNELQKDKMAEAYSEIGMKGERRRGKGHDGLYQGLSTATKDTYDALHMQALPPR
notes: Humanized from murine ROR1-4
B2: 6V11 anti-ROR1 humanized scFv, as chimeric antigen receptor on CAR-T cells (scFv)
scFv: ETTLTQSPATLSVSPGERAIIRCITSTDIDEDMNWYQQKPGQPPKLLISEGNTLRPGVPSRFSGSGSGTDFTLTISSLQPEDVATYYCLQSNNMPLTFGAGTKLELKGGGGSGGGGSGGGGSQVQLQESGPGLVKPSQTLSLTCTVSAYSITSDYAWNWIRQFPGNKLEWIGYISYSGFTRYNPSLKSRISITRDTSKNQYYLQLNSVTTEDTATYYCARGEITYYFDYWGQGTTLTVSSESKYGPPCPPCPIYIWAPLAGTCGVLLLSLVITLYCKRGRKKLLYIFKQPFMRPVQTTQEEDGCSCRFPEEEEGGCELRVKFSRSADAPAYQQGQNQLYNELNLGRREEYDVLDKRRGRDPEMGGKPRRKNPQEGLYNELQKDKMAEAYSEIGMKGERRRGKGHDGLYQGLSTATKDTYDALHMQALPPR
notes: Humanized from murine ROR1-4
B3: 6V12 anti-ROR1 humanized scFv, as chimeric antigen receptor on CAR-T cells (scFv)
scFv: ETTLTQSPATLSVSPGEKVIIRCITSTDIDEDMNWYQQKPGQPPKLLISEGNTLRPGVPSRFSSSGSGTDFTLTISSLQPEDVATYYCLQSNNMPLTFGAGTKLELKGGGGSGGGGSGGGGSQVQLQESGPGLVKPSQTLSLTCTVTAYSITSDYAWNWIRQFPGNKLEWMGYISYSGFTRYNPSLKSRISITRDTSKNQFFLKLNFVTTEDTATYYCARGEITYYFDYWGQGTTLTVSSESKYGPPCPPCPIYIWAPLAGTCGVLLLSLVITLYCKRGRKKLLYIFKQPFMRPVQTTQEEDGCSCRFPEEEEGGCELRVKFSRSADAPAYQQGQNQLYNELNLGRREEYDVLDKRRGRDPEMGGKPRRKNPQEGLYNELQKDKMAEAYSEIGMKGERRRGKGHDGLYQGLSTATKDTYDALHMQALPPR
notes: Humanized from murine ROR1-4
B4: 6V10 anti-ROR1 humanized scFv, as chimeric antigen receptor on CAR-T cells (scFv)
scFv: ETTLTQSPATLSVSPGERAIIRCITSTDIDEDMNWYQQKPGQPPKLLISEGNTLRPGVPSRFSGSGSGTDFTLTISSLQPEDVATYYCLQSNNMPLTFGAGTKLELKGGGGSGGGGSGGGGSQVQLQESGPGLVKPSQTLSLTCTVTAYSITSDYAWNWIRQFPGNKLEWMGYISYSGFTRYNPSLKSRISITRDTSKNQFFLKLNFVTTEDTATYYCARGEITYYFDYWGQGTTLTVSSESKYGPPCPPCPIYIWAPLAGTCGVLLLSLVITLYCKRGRKKLLYIFKQPFMRPVQTTQEEDGCSCRFPEEEEGGCELRVKFSRSADAPAYQQGQNQLYNELNLGRREEYDVLDKRRGRDPEMGGKPRRKNPQEGLYNELQKDKMAEAYSEIGMKGERRRGKGHDGLYQGLSTATKDTYDALHMQALPPR
notes: Humanized from murine ROR1-4
B5: 6V9 anti-ROR1 humanized scFv, as chimeric antigen receptor on CAR-T cells (scFv)
scFv: ETTLTQSPATLSVSPGEKVIIRCITSTDIDEDMNWYQQKPGQPPKLLISEGNTLRPGVPSRFSGSGSGTDFTLTISSLQPEDVATYYCLQSNNMPLTFGAGTKLELKGGGGSGGGGSGGGGSQVQLQESGPGLVKPSQTLSLTCTVSAYSITSDYAWNWIRQFPGNKLEWIGYISYSGFTRYNPSLKSRISITRDTSKNQYYLQLNSVTTEDTATYYCARGEITYYFDYWGQGTTLTVSSESKYGPPCPPCPIYIWAPLAGTCGVLLLSLVITLYCKRGRKKLLYIFKQPFMRPVQTTQEEDGCSCRFPEEEEGGCELRVKFSRSADAPAYQQGQNQLYNELNLGRREEYDVLDKRRGRDPEMGGKPRRKNPQEGLYNELQKDKMAEAYSEIGMKGERRRGKGHDGLYQGLSTATKDTYDALHMQALPPR
notes: Humanized from murine ROR1-4
B6: 6V13 anti-ROR1 humanized scFv, as chimeric antigen receptor on CAR-T cells (scFv)
scFv: ETTLTQSPATLSVSPGEKVIIRCITSTDIDEDMNWYQQKPGQPPKLLISEGNTLRPGVPSRFSSSGSGTDFTLTISSLQPEDVATYYCLQSNNMPLTFGAGTKLELKGGGGSGGGGSGGGGSQVQLQESGPGLVKPSQTLSLTCTVSAYSITSDYAWNWIRQFPGNKLEWIGYISYSGFTRYNPSLKSRISITRDTSKNQYYLQLNSVTTEDTATYYCARGEITYYFDYWGQGTTLTVSSESKYGPPCPPCPIYIWAPLAGTCGVLLLSLVITLYCKRGRKKLLYIFKQPFMRPVQTTQEEDGCSCRFPEEEEGGCELRVKFSRSADAPAYQQGQNQLYNELNLGRREEYDVLDKRRGRDPEMGGKPRRKNPQEGLYNELQKDKMAEAYSEIGMKGERRRGKGHDGLYQGLSTATKDTYDALHMQALPPR
notes: Humanized from murine ROR1-4

The target in this experiment is T1, ROR1-hFc (Acrobio brand, Cat. No. R01-H5250) protein (UniProt Q01973 30-403).
T1 construct: Bought reagent; not shown: hFc (human Fc, detected with anti-human IgG Fc)
T1 sequence (Q01973 30-403): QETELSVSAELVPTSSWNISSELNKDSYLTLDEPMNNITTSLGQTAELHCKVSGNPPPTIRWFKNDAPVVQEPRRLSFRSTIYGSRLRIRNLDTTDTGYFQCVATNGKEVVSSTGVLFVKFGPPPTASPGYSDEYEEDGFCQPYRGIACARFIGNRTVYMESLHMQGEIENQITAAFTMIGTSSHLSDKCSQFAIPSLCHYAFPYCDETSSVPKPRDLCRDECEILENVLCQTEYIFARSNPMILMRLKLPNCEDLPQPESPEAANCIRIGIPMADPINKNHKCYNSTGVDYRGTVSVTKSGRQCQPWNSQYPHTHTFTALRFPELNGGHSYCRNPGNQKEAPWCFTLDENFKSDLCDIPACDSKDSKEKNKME
Briefly: flow cytometry: CAR-T cells stained with ROR1-hFc, then PE anti-human IgG Fc. The protocol: After culturing at 37° C. and 5% CO₂ for 11 days, the above CAR-T cells, ROR1-4 CAR-T-2 cells (replacing the CD8α hinge region in the ROR1-4 CAR-T cells with the IgG4 hinge region) and Wild-type T cells (NT, used as negative control) were incubated with ROR1-hFc (Acrobio brand, Cat. No. R01-H5250) protein for 45 minutes, and after washing, PE anti-human IgG Fc Antibody (Biolegend brand, Cat. No. 410708) was added to incubate for 30 minutes. The expression level of the anti-ROR1 single chain antibody on the CAR-T cells was detected by flow cytometry, and the results are shown in FIG. 4.
On to B1, for which the binding result is given as “binds”. For the molecule B2, the binding result is listed as “binds”.

For the molecule B3, the binding result is reported as “binds”. With B4, the binding result is given as “binds”. Then B5, with “binds”; and B6, with “binds”.
